# Results taken from the RNAGym collection of RNA variant scans (doi:10.7554/elife.80360).
# B1: CPEB3 Ribozyme (parent)
# chain: GGGGGCCACAGCAGAAGCGUUCACGUCGCGGCCCCUGUCAGAUUCUGGUGAAUCUGCGAAUUCUGCUGU
# Variants of: B1
# Assay: self-cleavage, relative activity (ratio to wild type); higher = more cleavage; co-transcriptional
row,Variant,self-cleavage
1,A13U G48U,0.916
2,A13G U69G,1.01
3,A13G U69C,1.04
4,A13U C34G,0.309
5,A13U C34A,0.704
6,A13U U43A,0.31
7,A13U U43C,0.678
8,A13C U44A,0.7
9,A13C U44G,0.802
10,A13C U44C,0.51
11,G14A G56A,0.466
12,A13G U67A,0.889
13,A13G U67C,0.94
14,G14A C63A,0.829
15,G14A G48U,0.943
16,G14A G48C,0.836
17,G14A G48A,0.868
18,G14A G31C,0.183
19,G14A G31A,0.249
20,A13G G56U,0.742
21,A13G G56C,0.421
22,A13G G56A,0.934
23,A13C U36C,0.62
24,A13U G50U,0.857

row,Variant,self-cleavage
1,A13U G50C,0.756
2,A13U G50A,0.776
3,A13U U44C,0.345
4,A13U U44G,0.575
5,G14A A51U,0.75
6,G14A A51C,0.486
7,A13U C63A,0.317
8,A13U C63G,0.294
9,A13G C32U,0.916
10,A13G C32G,0.318
11,A13G C32A,0.773
12,A13U G28C,0.125
13,A13U G28A,0.134
14,A13U C32G,0.229
15,A13U C32A,0.542
16,A13G G41A,0.448
17,A13G C66G,0.489
18,A13G G48U,0.914
19,A13G G48A,0.968
20,A13G G14U,0.146
21,A13G G14A,0.276
22,A13G G14C,0.255
23,A13G C39G,0.758
24,A13G C39U,0.8

row,Variant,self-cleavage
1,A13G G68A,1.01
2,A13U G65C,0.417
3,A13U G65U,0.419
4,A13U G65A,0.513
5,G14A A40G,0.495
6,G14A A40C,0.234
7,G14A A59G,0.704
8,G14A A59U,0.369
9,G14A G25C,0.105
10,G14A G25U,0.0915
11,G14A G25A,0.156
12,A13G U64A,0.843
13,A13G U64C,1
14,A13G U64G,0.745
15,A13C U64A,0.948
16,A13C U64G,0.922
17,A13U G19C,0.133
18,A13U G19A,0.145
19,A13U G19U,0.15
20,A13G C45A,0.889
21,A13G C45U,0.917
22,A13U C29A,0.178
23,A13U C29U,0.138
24,A13U C29G,0.0771

row,Variant,self-cleavage
1,A13U U49C,0.78
2,A13U G41A,0.263
3,A13U G41C,0.247
4,A13G A51C,0.874
5,A13G G17A,0.0885
6,A13G G17U,0.214
7,A13U U53A,0.514
8,A13U U53G,0.398
9,A13U U36G,0.136
10,A13U U36A,0.121
11,G14A G17U,0.111
12,G14A A60G,0.358
13,G14A A60U,0.23
14,G14A A60C,0.28
15,G14A C24A,0.238
16,G14A C24U,0.2
17,G14A C29U,0.113
18,A13G G47A,0.994
19,A13G G47U,1.06
20,A13C U67G,0.824
21,A13U C24A,0.301
22,A13U C24U,0.364
23,A13G U21C,0.74
24,A13G U21G,0.355

row,Variant,self-cleavage
1,A13G U21A,0.966
2,A13U C33A,0.759
3,A13U C33G,0.333
4,A13U C27A,0.207
5,A13U G31C,0.217
6,A13U G31U,0.402
7,A13G U20G,0.0546
8,A13G U43G,0.539
9,A13G U43C,0.785
10,G14A G28C,0.146
11,A13G G25A,0.186
12,A13G G25U,0.118
13,A13G G25C,0.135
14,A13G G30C,0.711
15,A13G G30A,0.856
16,A13G G58U,1.01
17,A13G G58C,0.878
18,A13G G58A,0.902
19,A13U A15C,0.354
20,A13U A15G,0.79
21,A13U A15U,0.56
22,A13C G65C,0.278
23,A13C G65A,0.431
24,A13G U46G,0.979

row,Variant,self-cleavage
1,A13G U46A,1.02
2,A13G G28C,0.18
3,A13G G28U,0.15
4,A13U U55A,0.246
5,A13U U55G,0.234
6,A13G A40G,0.831
7,A13G A40U,0.455
8,A13C U21G,0.135
9,A13C U21A,0.772
10,A13C U21C,0.496
11,A13C G68A,0.921
12,A13C G68C,0.917
13,A13G U36A,0.222
14,A13G U36C,0.816
15,A13U C45G,0.814
16,A13U C45A,0.764
17,G14A C27A,0.14
18,G14A C27U,0.134
19,G14A A42C,0.343
20,A13U A23G,0.618
21,A13U A23U,0.963
22,A13U C57G,0.226
23,A13U C57U,0.308
24,A13C U69G,0.96

row,Variant,self-cleavage
1,A13U U67C,0.66
2,A13U U67A,0.629
3,G14A A15C,0.305
4,A13U U38A,0.609
5,A13U U38G,0.198
6,A13U U38C,0.704
7,A13C U61C,0.281
8,G14A C39G,0.385
9,G14A C39U,0.362
10,G14A C39A,0.22
11,A13U G68A,0.903
12,A13U G68U,0.886
13,A13U G68C,0.841
14,A13G C34A,0.797
15,A13G C34G,0.293
16,A13G C34U,1.02
17,A13C G56A,0.625
18,A13C G56U,0.51
19,A13C G56C,0.367
20,G14A A52C,0.688
21,G14A A52U,0.643
22,G14A C34A,0.419
23,G14A C34G,0.23
